We go through 12 molecules from patent US20220306695A1, “COMPSTATIN ANALOGUES AND THEIR MEDICAL USES” (priority 2019, published 2022).

In assay [1] the target is T1, Human C3 (human, UniProt P01024 23-1663).
T1 construct: In SPR the bought human C3 was immobilised on CM5 chips by amine coupling; In the haemolysis assay the C3 is that of diluted human serum; also called complement C3
The assay can be described thus: SPR, C3 immobilised. The protocol: Surface plasmon resonance (SPR) was used to characterize peptides with respect to their binding affinity (Kd) for C3. Human C3 (Complement tech cat #A1 13c) was immobilised on individual flow cells of CM5 sensor chips (GE Healthcare) using standard amine coupling to a density of approximately 3000 resonance units (RU) in a buffer consisting of 10 mM phosphate pH 7.4, 150 mM NaCl, 0.05% Tween20.
For interaction experiments a multi-cycle experiment approach was used and performed using either a Biacore™ T200 or Biacore™ X100 instrument (GE Healthcare) at 25° C. Peptides were injected in increasing concentration series (5-8 different concentrations) for 60-120 s at a flow rate of 30 μL/min in a buffer consisting of 10 mM Tris buffer at pH 7.4, with 150 mM NaCl and 0.05% Tween20. This was followed by a dissociation period for up to 10 min. The C3 surface was regenerated between runs by a 45 s injection of 3 M MgCl₂.
Sensorgrams were double-referenced (reference surface, blanks) prior to analysis of the kinetic profiles by globally fitting data to a 1:1 Langmuir binding model to obtain association and dissociation rates for calculation of the equilibrium dissociation constant Kd. Each peptide was tested at in at least 2 independent experiments.
In general terms: In SPR one partner is held on a chip, and binding of the other changes the refractive index at the surface.

Assay [2] addresses T1, Human C3. In words: cell-based or functional assay.

Starred links: 1 amine or outer side, 2 acyl side, 3 side chain; linkers in the order of their positions; H or OH if unused. Positions of bridges follow the written chain, without caps; N, C: chain ends. Non-standard residues stand in square brackets, D forms with d. Groups on a side chain read outwards from the residue. *: point of attachment. Trp(1-Me) = Cn1cc(C[C@H](N)C(=O)O)c2ccccc21; C18 diacid = O=C(O)CCCCCCCCCCCCCCCCC(=O)*; C16 diacid = O=C(O)CCCCCCCCCCCCCCC(=O)*; γGlu = O=C(O)[C@H](CCC(=O)[*:2])N[*:1]; hCys = N[C@@H](CCS)C(=O)O; AEEA = NCCOCCOCC(=O)O; Sar = CNCC(=O)O

T1 sequence (P01024 23-1663 limits assumed): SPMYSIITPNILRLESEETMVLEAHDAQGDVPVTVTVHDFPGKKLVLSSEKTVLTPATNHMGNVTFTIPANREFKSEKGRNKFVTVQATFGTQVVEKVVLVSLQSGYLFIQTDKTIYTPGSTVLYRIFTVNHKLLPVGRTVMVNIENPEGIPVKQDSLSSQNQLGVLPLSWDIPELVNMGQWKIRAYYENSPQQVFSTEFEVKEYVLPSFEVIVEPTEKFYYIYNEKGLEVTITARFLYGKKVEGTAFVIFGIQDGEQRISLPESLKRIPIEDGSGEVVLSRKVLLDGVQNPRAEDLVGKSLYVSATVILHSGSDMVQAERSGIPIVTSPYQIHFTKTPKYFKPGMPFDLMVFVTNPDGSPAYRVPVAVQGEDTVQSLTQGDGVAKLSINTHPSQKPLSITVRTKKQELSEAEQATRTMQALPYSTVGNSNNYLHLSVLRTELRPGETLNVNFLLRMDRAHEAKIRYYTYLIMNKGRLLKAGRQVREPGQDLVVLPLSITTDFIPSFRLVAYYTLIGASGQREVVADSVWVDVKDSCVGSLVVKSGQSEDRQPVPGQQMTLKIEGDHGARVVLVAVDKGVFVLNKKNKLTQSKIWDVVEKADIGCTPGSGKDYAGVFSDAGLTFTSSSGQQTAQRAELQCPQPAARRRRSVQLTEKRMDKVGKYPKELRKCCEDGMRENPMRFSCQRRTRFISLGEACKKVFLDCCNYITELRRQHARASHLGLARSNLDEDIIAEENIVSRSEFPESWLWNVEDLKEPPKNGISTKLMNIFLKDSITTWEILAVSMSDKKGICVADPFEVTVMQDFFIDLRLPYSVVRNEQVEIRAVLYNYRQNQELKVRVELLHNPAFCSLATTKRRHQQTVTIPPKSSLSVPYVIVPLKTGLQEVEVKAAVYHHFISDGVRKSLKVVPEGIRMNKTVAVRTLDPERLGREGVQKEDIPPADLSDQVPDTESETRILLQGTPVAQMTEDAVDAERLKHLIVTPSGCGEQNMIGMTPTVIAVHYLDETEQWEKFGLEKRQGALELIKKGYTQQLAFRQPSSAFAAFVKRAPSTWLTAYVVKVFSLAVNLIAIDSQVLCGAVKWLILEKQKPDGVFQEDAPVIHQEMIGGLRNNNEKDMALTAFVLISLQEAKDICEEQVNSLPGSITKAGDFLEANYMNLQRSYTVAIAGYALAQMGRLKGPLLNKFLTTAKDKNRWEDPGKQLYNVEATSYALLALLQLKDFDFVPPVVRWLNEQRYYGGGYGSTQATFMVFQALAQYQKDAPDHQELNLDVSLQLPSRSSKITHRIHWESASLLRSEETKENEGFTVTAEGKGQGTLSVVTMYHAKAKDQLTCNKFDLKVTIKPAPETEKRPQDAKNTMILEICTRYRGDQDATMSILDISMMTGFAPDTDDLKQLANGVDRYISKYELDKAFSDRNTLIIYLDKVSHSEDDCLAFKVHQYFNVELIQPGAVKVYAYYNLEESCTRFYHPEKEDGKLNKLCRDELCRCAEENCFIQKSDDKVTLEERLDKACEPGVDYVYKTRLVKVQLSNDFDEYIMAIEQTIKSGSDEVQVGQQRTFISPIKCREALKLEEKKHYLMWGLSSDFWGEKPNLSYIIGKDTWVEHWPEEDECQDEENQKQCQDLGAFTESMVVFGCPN

On to Ac-SEYCI[Trp(1-Me)]QDWGEHRC[Sar]EGE[AEEA][AEEA]K([γGlu-Gly-γGlu-C18 diacid])-NH2 (disulfide 4-14) [Compound 117], for which, in the assay with Human C3 [1], binding was put at a Kd of 24 nM. For the same molecule, the “IC50[nM], inhibition of hemolysis” value with Human C3 [2] was less than 250 nM.

On to Ac-SEF[hCys]I[Trp(1-Me)]QEWGEHRA[Sar]EGE[AEEA][AEEA]K([γGlu-Gly-γGlu-C18 diacid])-NH2 (thioether 4-14) [Compound 167], for which the Kd in the assay with Human C3 [1] came to 57.4 nM. Moreover, the “IC50[nM], inhibition of hemolysis” value with Human C3 [2] is less than 500 nM.

B1: Compound 125 (peptide)
peptide: Ac-SEYCI[Trp(1-Me)]QEWGEHRC[Sar]EGE[AEEA][AEEA]K([γGlu-Gly-γGlu-C18 diacid])-NH2
modifications: disulfide 4-14
SMILES: CC[C@H](C)[C@@H]1NC(=O)[C@@H](NC(=O)[C@H](Cc2ccc(O)cc2)NC(=O)[C@H](CCC(=O)O)NC(=O)[C@H](CO)NC(C)=O)CSSC[C@@H](C(=O)N(C)CC(=O)N[C@@H](CCC(=O)O)C(=O)NCC(=O)N[C@@H](CCC(=O)O)C(=O)NCCOCCOCC(=O)NCCOCCOCC(=O)N[C@@H](CCCCNC(=O)CC[C@H](NC(=O)CNC(=O)CC[C@H](NC(=O)CCCCCCCCCCCCCCCCC(=O)O)C(=O)O)C(=O)O)C(N)=O)NC(=O)[C@H](CCCNC(=N)N)NC(=O)[C@H](Cc2c[nH]cn2)NC(=O)[C@H](CCC(=O)O)NC(=O)CNC(=O)[C@H](Cc2c[nH]c3ccccc23)NC(=O)[C@H](CCC(=O)O)NC(=O)[C@H](CCC(N)=O)NC(=O)[C@H](Cc2cn(C)c3ccccc23)NC1=O
The molecule B1 registered a Kd with Human C3 [1] of 71 nM. Besides, the “IC50[nM], inhibition of hemolysis” value with Human C3 [2] is less than 500 nM.

B2: Compound 124 (peptide)
peptide: Ac-SEFCI[Trp(1-Me)]QEWGEHRC[Sar]EGE[AEEA][AEEA]K([γGlu-Gly-γGlu-C18 diacid])-NH2
modifications: disulfide 4-14
SMILES: CC[C@H](C)[C@@H]1NC(=O)[C@@H](NC(=O)[C@H](Cc2ccccc2)NC(=O)[C@H](CCC(=O)O)NC(=O)[C@H](CO)NC(C)=O)CSSC[C@@H](C(=O)N(C)CC(=O)N[C@@H](CCC(=O)O)C(=O)NCC(=O)N[C@@H](CCC(=O)O)C(=O)NCCOCCOCC(=O)NCCOCCOCC(=O)N[C@@H](CCCCNC(=O)CC[C@H](NC(=O)CNC(=O)CC[C@H](NC(=O)CCCCCCCCCCCCCCCCC(=O)O)C(=O)O)C(=O)O)C(N)=O)NC(=O)[C@H](CCCNC(=N)N)NC(=O)[C@H](Cc2c[nH]cn2)NC(=O)[C@H](CCC(=O)O)NC(=O)CNC(=O)[C@H](Cc2c[nH]c3ccccc23)NC(=O)[C@H](CCC(=O)O)NC(=O)[C@H](CCC(N)=O)NC(=O)[C@H](Cc2cn(C)c3ccccc23)NC1=O
B2 had a Kd in the assay with Human C3 [1] of 31 nM. In the assay with Human C3 [2], the “IC50[nM], inhibition of hemolysis” value was less than 100 nM.

As to Ac-SEFCI[Trp(1-Me)]QDWGEHRCTEGE[AEEA][AEEA]K([γGlu-Gly-γGlu-C18 diacid])-NH2 (disulfide 4-14) [Compound 126], binding in the assay with Human C3 [1] was characterised by a dissociation constant (Kd) of 5.2 nM. Further, in the assay with Human C3 [2], the “IC50[nM], inhibition of hemolysis” value was less than 100 nM.

B3: Compound 149 (peptide)
peptide: GEFAIWQDWGEHRCGEAEXXK
modifications: not fully specified; N-acetyl; C-terminal amide; delta-cystathionine (Ctt2) thioether bridge A4-hCys14 (hCys written C); W6 is 1-Me-Trp; G10 is Sar; G15 is Sar; X19 and X20 are Peg3; K21 side chain bears [17-carboxy-heptadecanoyl][γGlu]G[γGlu]
As for B3, the Kd with Human C3 [1] stood at 0.5 nM. In the assay with Human C3 [2], the “IC50[nM], inhibition of hemolysis” value is less than 100 nM.

B4: Compound 146 (peptide)
peptide: SEFAIWQDWGEHRCGEGEXXK
modifications: not fully specified; N-acetyl; C-terminal amide; delta-cystathionine (Ctt2) thioether bridge A4-hCys14 (hCys written C); W6 is 1-Me-Trp; G15 is Sar; X19 and X20 are Peg3; K21 side chain bears [17-carboxy-heptadecanoyl][γGlu]G[γGlu]
B4: the affinity with Human C3 [1], expressed as Kd, was 0.43 nM. Besides, the “IC50[nM], inhibition of hemolysis” value with Human C3 [2] was less than 100 nM.

B5: Compound 153 (peptide)
peptide: SEFAIWQEWGEHRCGEGEXXK
modifications: not fully specified; N-acetyl; C-terminal amide; delta-cystathionine (Ctt2) thioether bridge A4-hCys14 (hCys written C); W6 is 1-Me-Trp; G15 is Sar; X19 and X20 are Peg3; K21 side chain bears [17-carboxy-heptadecanoyl][γGlu]G[γGlu]
On to B5, for which the Kd with Human C3 [1] was determined as 11.1 nM. In the assay with Human C3 [2], the “IC50[nM], inhibition of hemolysis” value is less than 100 nM.

B6: Compound 111 (peptide)
peptide: Ac-EGSAYCI[Trp(1-Me)]QDWGEHRC[Sar]EK[γGlu]K([AEEA-AEEA-γGlu-C18 diacid])-NH2
modifications: disulfide 6-16
SMILES: CC[C@H](C)[C@@H]1NC(=O)[C@@H](NC(=O)[C@H](Cc2ccc(O)cc2)NC(=O)[C@H](C)NC(=O)[C@H](CO)NC(=O)CNC(=O)[C@H](CCC(=O)O)NC(C)=O)CSSC[C@@H](C(=O)N(C)CC(=O)N[C@@H](CCC(=O)O)C(=O)N[C@@H](CCCCN)C(=O)N[C@@H](CCC(=O)N[C@@H](CCCCNC(=O)COCCOCCNC(=O)COCCOCCNC(=O)CC[C@H](NC(=O)CCCCCCCCCCCCCCCCC(=O)O)C(=O)O)C(N)=O)C(=O)O)NC(=O)[C@H](CCCNC(=N)N)NC(=O)[C@H](Cc2c[nH]cn2)NC(=O)[C@H](CCC(=O)O)NC(=O)CNC(=O)[C@H](Cc2c[nH]c3ccccc23)NC(=O)[C@H](CC(=O)O)NC(=O)[C@H](CCC(N)=O)NC(=O)[C@H](Cc2cn(C)c3ccccc23)NC1=O
In turn, B6 showed a Kd with Human C3 [1] of 8.2 nM. Further, in the assay with Human C3 [2], the “IC50[nM], inhibition of hemolysis” value was less than 100 nM.

B7: Compound 119 (peptide)
peptide: Ac-SEFCI[Trp(1-Me)]QDWGEHRC[Sar]EGAK([AEEA-γGlu-AEEA-Gly-γGlu-C18 diacid])-NH2
modifications: disulfide 4-14
SMILES: CC[C@H](C)[C@@H]1NC(=O)[C@@H](NC(=O)[C@H](Cc2ccccc2)NC(=O)[C@H](CCC(=O)O)NC(=O)[C@H](CO)NC(C)=O)CSSC[C@@H](C(=O)N(C)CC(=O)N[C@@H](CCC(=O)O)C(=O)NCC(=O)N[C@@H](C)C(=O)N[C@@H](CCCCNC(=O)COCCOCCNC(=O)CC[C@H](NC(=O)COCCOCCNC(=O)CNC(=O)CC[C@H](NC(=O)CCCCCCCCCCCCCCCCC(=O)O)C(=O)O)C(=O)O)C(N)=O)NC(=O)[C@H](CCCNC(=N)N)NC(=O)[C@H](Cc2c[nH]cn2)NC(=O)[C@H](CCC(=O)O)NC(=O)CNC(=O)[C@H](Cc2c[nH]c3ccccc23)NC(=O)[C@H](CC(=O)O)NC(=O)[C@H](CCC(N)=O)NC(=O)[C@H](Cc2cn(C)c3ccccc23)NC1=O
In turn, B7 showed a Kd in the assay with Human C3 [1] of 9.8 nM. Besides, in the assay with Human C3 [2], the “IC50[nM], inhibition of hemolysis” value was less than 100 nM.

B8: Compound 54 (peptide)
peptide: Ac-EGSAYCI[Trp(1-Me)]QDWGEHRC[Sar]E-NH2
modifications: disulfide 6-16
SMILES: CC[C@H](C)[C@@H]1NC(=O)[C@@H](NC(=O)[C@H](Cc2ccc(O)cc2)NC(=O)[C@H](C)NC(=O)[C@H](CO)NC(=O)CNC(=O)[C@H](CCC(=O)O)NC(C)=O)CSSC[C@@H](C(=O)N(C)CC(=O)N[C@@H](CCC(=O)O)C(N)=O)NC(=O)[C@H](CCCNC(=N)N)NC(=O)[C@H](Cc2c[nH]cn2)NC(=O)[C@H](CCC(=O)O)NC(=O)CNC(=O)[C@H](Cc2c[nH]c3ccccc23)NC(=O)[C@H](CC(=O)O)NC(=O)[C@H](CCC(N)=O)NC(=O)[C@H](Cc2cn(C)c3ccccc23)NC1=O
B8 had a Kd in the assay with Human C3 [1] of 3 nM. In the assay with Human C3 [2], the “IC50[nM], inhibition of hemolysis” value is less than 100 nM.

B9: Compound 107 (peptide)
peptide: {C16 diacid}-EGSEYCI[Trp(1-Me)]QDWGEHRC[Sar]E-NH2
modifications: disulfide 6-16
SMILES: CC[C@H](C)[C@@H]1NC(=O)[C@@H](NC(=O)[C@H](Cc2ccc(O)cc2)NC(=O)[C@H](CCC(=O)O)NC(=O)[C@H](CO)NC(=O)CNC(=O)[C@H](CCC(=O)O)NC(=O)CCCCCCCCCCCCCCC(=O)O)CSSC[C@@H](C(=O)N(C)CC(=O)N[C@@H](CCC(=O)O)C(N)=O)NC(=O)[C@H](CCCNC(=N)N)NC(=O)[C@H](Cc2c[nH]cn2)NC(=O)[C@H](CCC(=O)O)NC(=O)CNC(=O)[C@H](Cc2c[nH]c3ccccc23)NC(=O)[C@H](CC(=O)O)NC(=O)[C@H](CCC(N)=O)NC(=O)[C@H](Cc2cn(C)c3ccccc23)NC1=O
In the case of B9, the Kd with Human C3 [1] is 6.1 nM. For the same molecule, the “IC50[nM], inhibition of hemolysis” value in the assay with Human C3 [2] is less than 100 nM.

What is called Kd is the constant that tells how readily two partners part at equilibrium. Low values mean higher affinity, high ones lower affinity.
